Experiments:
[1] = target: T1, PglC from H. pullorum (PglC (H. pu)) (Helicobacter pullorum, UniProt E1B268); test: UMP-Glo luminescence (UMP release), time course; assay type: biochemical; details: 20 μM UDP-GlcNAc; 20 μM Und-P; 0.3 μM enzyme; 5 mM MgCl2; pH 7.5; 0.1% Triton X-100; 10% DMSO
T1 construct: N-terminal His6-SUMO tag, tag cleavage not mentioned; E. coli BL21-RIL; DDM-solubilized membrane fraction, Ni-NTA

[2] = test system: CC(=O)N[C@H]1[C@@H](OP(=O)(O)OP(=O)(O)OC[C@H]2O[C@@H](n3ccc(=O)[nH]c3=O)[C@H](O)[C@@H]2O)O[C@H](C)[C@@H](NC(C)=O)[C@@H]1O; test: purified protein; details: 60 μM Und-P, 5 mM MgCl2, pH 7.5, room temperature, 0.1% Triton X-100, 10% DMSO
[3] = test system: CC(C)=CCC/C(C)=C/CC/C(C)=C/CC/C(C)=C\CC/C(C)=C\CC/C(C)=C\CC/C(C)=C\CC/C(C)=C\CC/C(C)=C\CC/C(C)=C\CC/C(C)=C\COP(=O)(O)O; test: purified protein; details: 80 μM UDP-diNAcBac, 5 mM MgCl2, pH 7.5, room temperature, 0.1% Triton X-100, 10% DMSO

T1 sequence (E1B268 entry or part of it): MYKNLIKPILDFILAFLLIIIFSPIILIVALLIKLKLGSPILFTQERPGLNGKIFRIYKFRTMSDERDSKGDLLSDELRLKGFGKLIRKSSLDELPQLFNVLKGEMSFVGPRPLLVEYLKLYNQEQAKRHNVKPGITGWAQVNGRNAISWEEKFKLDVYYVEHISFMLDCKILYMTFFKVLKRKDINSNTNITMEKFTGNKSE

Compound: CC(=O)N[C@H]1[C@@H](OP(=O)(O)OP(=O)(O)OC[C@H]2O[C@@H](n3ccc(=O)[nH]c3=O)[C@H](O)[C@@H]2O)O[C@H](CO)[C@@H](O)[C@@H]1O [UDP-GlcNAc]
- UMP-Glo luminescence (UMP release), time course [1]: demonstrates that the H. pullorum PglC catalyzes turnover of these substrates

Compound: CC(C)=CCC/C(C)=C/CC/C(C)=C/CC/C(C)=C\CC/C(C)=C\CC/C(C)=C\CC/C(C)=C\CC/C(C)=C\CC/C(C)=C\CC/C(C)=C\CC/C(C)=C\COP(=O)(O)O [Und-P]
- UMP-Glo luminescence (UMP release), time course [1]: demonstrates that the H. pullorum PglC catalyzes turnover of these substrates

Compound: PglC from Campylobacter jejuni (SUMO-PglC) (Campylobacter jejuni subsp. jejuni NCTC 11168 = ATCC 700819)
- Km [2]: 24.61 ± 3.30 µM
- kcat [2]: 5.67 ± 0.333 s⁻¹
- Km [3]: 7.18 ± 1.37 µM
- kcat [3]: 5.17 ± 0.333 s⁻¹
